The data set is described as follows: self-splicing fitness, log relative to wild type (ln ratio); higher = more splicing; Tetrahymena group I intron in knt gene, E. coli kanamycin selection, DiMSum; sequences stand for … in CUCUCU…GGAGGGAAAAGUUAUCAGGCAUGCACCUGGUAGCUAGUCUUUAAACCAAUAGAUUGCAUCGGUUUAAAAGGCAAGACCGUCAAAUUGCGGGAAAGGGGUCAACAGCCGUUCAGUACCAAGUCUCAGGGGAAACUUUGAGAUGGCCUUGCAAAGGGUAUGGUAAUAAGCUGACGGACAUGGUCCUAACCACGCAGCCAAGUCCUAAGUCAACAGAUCUUCUGUUGAUAUGGAUGCAGUUCACAGACUAAAUGUCGGUCGGGGAAGAUGUAUUCUUCUCAUAAGAUAUAGUCGGACCUCUCCUUAAUGGGAGCUAGCGGAUGAAGUGAUGCAACACUGGAGCCGCUGGGAACUAAUUUGUAUGCGAAAGUAUAUUGAUUAGUUUUGGAGUACUCGUGGUCG
In a few lines: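 DiMSum derived fitness as the error-weighted combination of fold changes across replicates, kanamycin versus no kanamycin, normalised to wild type. E. coli BL21(DE3) held the library, which randomised all eight P1ex-region intron nucleotides within the knt kanamycin-resistance gene on pET-22b(+). Six replicate transformations grew overnight at 37°C or 30°C on LB agar with or without 25 μg/mL kanamycin, also containing 100 μg/mL carbenicillin, 50 μM IPTG and 0.2% rhamnose, and pooled colonies were amplicon-sequenced on an Illumina HiSeq 2500.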

± gives the uncertainty stated by the source.

Regarding ACACAGCAAUAUUACGCAUU, the “self-splicing fitness (ln)” value (30 °C) is -2.47 ± 0.081 and the “self-splicing fitness (ln)” value (37 °C) was -1.5 ± 0.087.
In the same order, the values of GGUCAGCAAUAUUACGGCGA are 0.307 ± 0.14 and 0.838 ± 0.14.
As to AUUGAGCAAUAUUACGCUGU, the “self-splicing fitness (ln)” value (30 °C) was -1.97 ± 0.25.
For the sequence CAAGAGCAAUAUUACGUGAC, the “self-splicing fitness (ln)” value (37 °C) was -3.01 ± 0.18.
Regarding GGAAAGCAAUAUUACGCCCG, the “self-splicing fitness (ln)” value is -0.767 ± 0.21 (30 °C) and -0.0766 ± 0.23 (37 °C).
Take CAAUAGCAAUAUUACGAGUC: the “self-splicing fitness (ln)” value (30 °C) was -4.09 ± 0.34 and the “self-splicing fitness (ln)” value (37 °C) is -2.75 ± 0.28.
UGUAAGCAAUAUUACGGCCC: for the setting “30 °C”, the “self-splicing fitness (ln)” value is -2.98 ± 0.38.
Take AAAUAGCAAUAUUACGUCAG: the “self-splicing fitness (ln)” value is, setting by setting: (30 °C) -2.52 ± 0.12; (37 °C) -1.41 ± 0.11.
For CGUUAGCAAUAUUACGAACG, in that order: -2.85 ± 0.3 and -2.62 ± 0.38.
Regarding CUUCAGCAAUAUUACGCCGC, the “self-splicing fitness (ln)” value was -3.14 ± 0.37 (30 °C) and -2.43 ± 0.35 (37 °C).
In the same order, the values of AAAUAGCAAUAUUACGCAUG are -1.27 ± 0.11 and -1.03 ± 0.12.
As for GUCGAGCAAUAUUACGAAGC, the “self-splicing fitness (ln)” value is -2.37 ± 0.19 (30 °C) and -1.85 ± 0.23 (37 °C).
In the same order, the values of AAACAGCAAUAUUACGGGGU are -3.07 ± 0.11 and -2.6 ± 0.14.
For GCUCAGCAAUAUUACGGCCA, in that order: -1.77 ± 0.15 and -0.805 ± 0.16.
For UCCUAGCAAUAUUACGGAGA, in that order: -0.637 ± 0.072 and -0.626 ± 0.079.
As for CUGUAGCAAUAUUACGCAGU, the “self-splicing fitness (ln)” value by setting is: (30 °C) -2.29 ± 0.15; (37 °C) -3.65 ± 0.33.
Consider CACUAGCAAUAUUACGUCUG, for which the “self-splicing fitness (ln)” value is -0.516 ± 0.058 (30 °C) and 0.214 ± 0.074 (37 °C).
In the same order, the values of UACUAGCAAUAUUACGUCGG are -2.29 ± 0.15 and -2.18 ± 0.18.
In the case of AUAGAGCAAUAUUACGCCGC, where the note is “37 °C”, the “self-splicing fitness (ln)” value was -2.75 ± 0.44.
For UUUAAGCAAUAUUACGCGUC, the “self-splicing fitness (ln)” value runs as follows: (30 °C) -1.9 ± 0.18; (37 °C) -1.77 ± 0.25.
For GCCAAGCAAUAUUACGGCCU, in that order: -3.86 ± 0.32 and -1.67 ± 0.19.
For ACAUAGCAAUAUUACGCCAU, in that order: -3.25 ± 0.28 and -2.08 ± 0.22.
For AAGGAGCAAUAUUACGCAUG, in that order: -3.28 ± 0.22 and -2.65 ± 0.22.
Regarding GACAAGCAAUAUUACGGACU, the “self-splicing fitness (ln)” value by setting is: (30 °C) -1.17 ± 0.075; (37 °C) 0.137 ± 0.087.
For ACUCAGCAAUAUUACGGGUG, in that order: -1.42 ± 0.063 and -0.563 ± 0.077.
In the same order, the values of CUAAAGCAAUAUUACGCUCG are -0.715 ± 0.12 and -0.626 ± 0.15.
For the sequence AUGGAGCAAUAUUACGGGAC, the “self-splicing fitness (ln)” value runs as follows: (30 °C) -5.23 ± 0.41; (37 °C) -2.7 ± 0.25.
In the same order, the values of CGACAGCAAUAUUACGUCUC are -1.98 ± 0.13 and -2.13 ± 0.2.
Take GUCUAGCAAUAUUACGAACU: the “self-splicing fitness (ln)” value is -1.9 ± 0.2 (30 °C) and -1.12 ± 0.19 (37 °C).
In the same order, the values of GGGAAGCAAUAUUACGUGCU are -1.69 ± 0.12 and -0.273 ± 0.11.
In the case of CACUAGCAAUAUUACGAGAA, the “self-splicing fitness (ln)” value (30 °C) was -2.74 ± 0.43 and the “self-splicing fitness (ln)” value (37 °C) is -1.67 ± 0.28.
For CCUGAGCAAUAUUACGGUCA, in that order: -2.92 ± 0.24 and -2.46 ± 0.33.
CGACAGCAAUAUUACGUCAA: the “self-splicing fitness (ln)” value is, setting by setting: (30 °C) -1.99 ± 0.14; (37 °C) -1.21 ± 0.12.
In the same order, the values of GCGAAGCAAUAUUACGAAGU are -2.99 ± 0.35 and -2.89 ± 0.26.
With UACUAGCAAUAUUACGGGGU, the “self-splicing fitness (ln)” value is, setting by setting: (30 °C) -4.05 ± 0.19; (37 °C) -2.71 ± 0.2.
Consider GAUGAGCAAUAUUACGAAGU, for which the “self-splicing fitness (ln)” value runs as follows: (30 °C) -2.87 ± 0.22; (37 °C) -2.84 ± 0.28.
For GCUUAGCAAUAUUACGACAC, in that order: -0.819 ± 0.21 and -0.721 ± 0.16.
With CAUAAGCAAUAUUACGUCGC, the “self-splicing fitness (ln)” value (30 °C) is -4.06 ± 0.18 and the “self-splicing fitness (ln)” value (37 °C) is -3.2 ± 0.17.
In the same order, the values of AGUCAGCAAUAUUACGCCCC are 0.28 ± 0.17 and 0.672 ± 0.33.

The record behind these values is the supplement of paper PMC7877785.
